Consider 1 molecule from publication PMC5787804, “Communication between N terminus and loop2 tunes Orai activation” (The Journal of Biological Chemistry, 2017).

The target in this test is T1, Orai3-L2 (aa 111–161, mutation C118G) (human, UniProt Q9BRQ5 111-161, C118G, conjugated to amino-functionalized AFM cantilever tips via a flexible NHS-PEG18-acetal cross-linker).
T1 construct: human Orai3 loop2, aa 111–161; also called Orai3-loop2; source: synthetic peptide (custom-synthesized, >95% purity, Synpeptide)
The test can be described thus: AFM single-molecule force spectroscopy; loop2 peptide tethered to the cantilever tip via a PEG linker, Orai1-NT peptide immobilised on silicon chips; room temperature, HBS buffer (150 mM NaCl, 5 mM Hepes); pulling velocity 50-8000 nm/s; koff from the Bell-Evans single energy barrier model. Particulars: both partners purified.

B1: Orai1-NT 70–91 (peptide)
peptide: SMQALSWRKLYLSRAKLKASSRC
modifications: added C-terminal cysteine for site-specific coupling; immobilized on silicon chips via NHS-PEG27-maleimide linkers
notes: human Orai1 N terminus, aa 70–91; added C-terminal cysteine for site-specific coupling (told in words); also called Orai1 70–91; non-truncated Orai1 NT; source: synthetic peptide (custom-synthesized, >95% purity, DgPeptides)
In the case of B1, the binding result is “binds”.
